From patent US9061070B2, “Treating stroke and other diseases without inhibiting N-type calcium channels” (NoNO, Inc., priority 2007, dated 2015) come the findings set out here.

The target in this assay is N-type calcium channels (Mus musculus, UniProt O55017). In words: Whole-cell patch clamp recordings of calcium currents in dorsal root ganglion neurons. The format is cell-based, Swiss mice. To be noted: 100 μM; FIG. 5A.
Chain of N-type calcium channels (O55017 whole entry): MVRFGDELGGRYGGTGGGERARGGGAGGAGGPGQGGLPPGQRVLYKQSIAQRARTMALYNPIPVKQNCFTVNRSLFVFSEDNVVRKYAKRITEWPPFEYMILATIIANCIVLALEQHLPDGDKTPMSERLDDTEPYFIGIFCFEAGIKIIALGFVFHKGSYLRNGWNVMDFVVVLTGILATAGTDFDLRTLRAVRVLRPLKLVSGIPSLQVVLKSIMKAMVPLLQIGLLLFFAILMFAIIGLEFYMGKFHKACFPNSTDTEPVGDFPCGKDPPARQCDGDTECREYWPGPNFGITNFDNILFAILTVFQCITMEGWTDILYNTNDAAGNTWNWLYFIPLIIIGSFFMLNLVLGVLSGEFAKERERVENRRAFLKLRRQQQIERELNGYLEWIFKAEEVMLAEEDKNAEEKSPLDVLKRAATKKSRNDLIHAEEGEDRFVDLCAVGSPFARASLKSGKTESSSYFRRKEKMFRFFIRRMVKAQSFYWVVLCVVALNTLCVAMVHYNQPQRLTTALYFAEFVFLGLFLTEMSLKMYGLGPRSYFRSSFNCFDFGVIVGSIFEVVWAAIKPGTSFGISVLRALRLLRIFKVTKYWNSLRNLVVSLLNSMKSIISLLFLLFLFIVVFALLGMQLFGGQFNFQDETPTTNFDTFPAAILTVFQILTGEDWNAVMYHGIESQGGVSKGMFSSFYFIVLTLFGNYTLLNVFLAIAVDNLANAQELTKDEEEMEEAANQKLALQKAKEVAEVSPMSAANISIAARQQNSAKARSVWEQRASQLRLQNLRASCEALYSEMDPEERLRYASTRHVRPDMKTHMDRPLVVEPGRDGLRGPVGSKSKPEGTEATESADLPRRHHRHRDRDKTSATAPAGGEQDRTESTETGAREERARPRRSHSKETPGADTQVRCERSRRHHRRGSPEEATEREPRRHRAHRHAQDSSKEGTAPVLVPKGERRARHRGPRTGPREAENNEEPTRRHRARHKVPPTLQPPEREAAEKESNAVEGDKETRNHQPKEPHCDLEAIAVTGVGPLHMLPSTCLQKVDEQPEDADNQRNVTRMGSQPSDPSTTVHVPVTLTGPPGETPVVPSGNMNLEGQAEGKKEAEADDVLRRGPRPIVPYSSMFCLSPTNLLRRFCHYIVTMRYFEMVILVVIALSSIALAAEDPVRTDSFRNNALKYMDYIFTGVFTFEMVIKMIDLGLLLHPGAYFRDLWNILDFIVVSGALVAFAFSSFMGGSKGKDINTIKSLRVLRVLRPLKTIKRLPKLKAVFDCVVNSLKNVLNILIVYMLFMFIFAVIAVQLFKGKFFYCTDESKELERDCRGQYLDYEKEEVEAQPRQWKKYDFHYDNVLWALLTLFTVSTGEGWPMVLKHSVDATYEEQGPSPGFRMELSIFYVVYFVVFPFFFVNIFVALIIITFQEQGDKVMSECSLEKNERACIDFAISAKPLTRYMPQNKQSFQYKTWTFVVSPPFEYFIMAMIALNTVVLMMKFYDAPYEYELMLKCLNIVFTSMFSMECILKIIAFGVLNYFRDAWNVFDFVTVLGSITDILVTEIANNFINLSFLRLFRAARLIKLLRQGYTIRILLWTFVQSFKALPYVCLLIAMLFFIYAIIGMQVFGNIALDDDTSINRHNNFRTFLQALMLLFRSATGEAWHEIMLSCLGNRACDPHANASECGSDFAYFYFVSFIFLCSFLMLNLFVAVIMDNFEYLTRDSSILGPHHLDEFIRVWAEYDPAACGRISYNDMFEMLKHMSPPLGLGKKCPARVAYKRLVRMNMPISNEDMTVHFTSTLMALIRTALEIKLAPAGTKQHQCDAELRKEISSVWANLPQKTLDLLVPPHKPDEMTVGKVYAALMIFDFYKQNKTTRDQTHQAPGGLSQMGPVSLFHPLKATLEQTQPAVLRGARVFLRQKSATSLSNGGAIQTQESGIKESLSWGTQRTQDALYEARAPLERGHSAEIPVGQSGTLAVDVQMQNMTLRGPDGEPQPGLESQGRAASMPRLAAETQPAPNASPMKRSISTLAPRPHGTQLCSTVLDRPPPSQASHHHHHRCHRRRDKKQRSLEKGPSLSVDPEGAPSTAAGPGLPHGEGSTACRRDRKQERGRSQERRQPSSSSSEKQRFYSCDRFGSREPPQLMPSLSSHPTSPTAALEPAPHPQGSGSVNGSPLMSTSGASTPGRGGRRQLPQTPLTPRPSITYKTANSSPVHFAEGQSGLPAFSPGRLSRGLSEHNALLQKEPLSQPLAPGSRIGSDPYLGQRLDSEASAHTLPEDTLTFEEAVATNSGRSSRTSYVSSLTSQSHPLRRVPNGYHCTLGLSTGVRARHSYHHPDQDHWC
Chain of N-type calcium channels (O08532 25-956 partner limits assumed): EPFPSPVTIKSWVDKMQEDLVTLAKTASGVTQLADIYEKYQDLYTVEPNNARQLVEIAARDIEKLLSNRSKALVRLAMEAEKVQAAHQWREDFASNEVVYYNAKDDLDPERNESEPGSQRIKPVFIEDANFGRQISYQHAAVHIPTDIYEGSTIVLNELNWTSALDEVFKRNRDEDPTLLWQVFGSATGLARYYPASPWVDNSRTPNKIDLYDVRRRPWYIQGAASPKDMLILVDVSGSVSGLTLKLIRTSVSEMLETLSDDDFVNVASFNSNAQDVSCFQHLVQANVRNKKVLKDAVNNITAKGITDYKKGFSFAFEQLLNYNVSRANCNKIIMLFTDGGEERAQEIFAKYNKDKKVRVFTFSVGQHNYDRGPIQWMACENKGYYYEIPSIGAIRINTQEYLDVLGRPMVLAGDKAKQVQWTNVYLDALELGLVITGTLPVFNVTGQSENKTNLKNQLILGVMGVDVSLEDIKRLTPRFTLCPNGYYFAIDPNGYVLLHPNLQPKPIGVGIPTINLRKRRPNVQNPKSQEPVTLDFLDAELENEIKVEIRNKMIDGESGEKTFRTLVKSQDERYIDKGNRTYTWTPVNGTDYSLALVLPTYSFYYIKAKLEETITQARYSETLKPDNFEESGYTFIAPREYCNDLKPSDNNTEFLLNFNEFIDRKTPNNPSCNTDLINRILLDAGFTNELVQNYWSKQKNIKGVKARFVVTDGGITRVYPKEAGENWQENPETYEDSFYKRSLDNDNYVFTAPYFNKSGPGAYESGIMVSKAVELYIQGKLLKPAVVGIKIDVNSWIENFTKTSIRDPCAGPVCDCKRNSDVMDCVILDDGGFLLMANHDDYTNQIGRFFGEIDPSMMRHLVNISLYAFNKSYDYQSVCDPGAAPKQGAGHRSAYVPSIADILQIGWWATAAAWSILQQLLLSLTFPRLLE
Chain of N-type calcium channels (O08532 957-1103 partner limits assumed): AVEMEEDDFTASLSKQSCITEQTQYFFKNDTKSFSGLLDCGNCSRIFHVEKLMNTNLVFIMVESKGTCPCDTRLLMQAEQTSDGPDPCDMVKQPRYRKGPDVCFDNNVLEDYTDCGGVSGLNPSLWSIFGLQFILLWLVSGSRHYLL
Chain of N-type calcium channels (P54285 whole entry partner): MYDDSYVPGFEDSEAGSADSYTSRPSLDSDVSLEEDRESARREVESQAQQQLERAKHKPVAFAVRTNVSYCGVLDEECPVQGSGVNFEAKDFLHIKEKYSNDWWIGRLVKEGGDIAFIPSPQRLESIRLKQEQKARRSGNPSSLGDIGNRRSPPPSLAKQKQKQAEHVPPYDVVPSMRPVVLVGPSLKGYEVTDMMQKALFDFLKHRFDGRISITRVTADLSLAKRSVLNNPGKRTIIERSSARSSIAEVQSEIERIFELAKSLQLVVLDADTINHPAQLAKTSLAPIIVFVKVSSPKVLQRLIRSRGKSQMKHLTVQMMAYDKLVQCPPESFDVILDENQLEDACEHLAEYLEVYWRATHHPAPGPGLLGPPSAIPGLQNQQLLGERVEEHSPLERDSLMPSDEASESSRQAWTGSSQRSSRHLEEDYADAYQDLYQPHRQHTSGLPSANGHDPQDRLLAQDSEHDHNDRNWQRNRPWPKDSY

Consider “YGRKKRRQRRRKLSSIESDV [Tat-NR2B9c, reference compound]”, for which the “additional inhibition once N-channels are blocked by omega conotoxin (1 μM)” value is recorded as “no additional inhibition”.
